The target of assay [1] is T1, Soluble IGF-1R (sIGF-1R), R&D Systems Cat. # 391-GR/CF (UniProt P08069 31-935, limits assumed).
T1 construct: extracellular domain
Nature of the assay: phage ELISA. For orientation: An ELISA detects its analyte on a solid surface through an enzyme-linked reagent.

In assay [2] the target is T2, soluble human insulin receptor-immunoglobulin heavy chain chimera (sIR-Fc; Bass et al., 1996) (human, UniProt P06213 28-956, limits assumed).
T2 construct: extracellular domain; also called soluble IR (Bass construct); not shown: immunoglobulin heavy chain constant domains
Briefly: phage ELISA.

Take PDLHKGFYAQLAQLIRGQLLS [20E2B-3-E3-IGFR]: in assay [1], the IGF-1R/IR comparison came out at 13.1 and the “Ratio over Background” value turned out to be 16.3. Also, in assay [2], the IR/IGF-1R comparison came out at 0.1 and the “Ratio over Background” value amounted to 1.3.
In the case of FYDAIDQLVRGSARAGGTRD [R20α-3-20E2-IR], in assay [1], the IGF-1R/IR comparison worked out at 12.9 and the “Ratio over Background” value is 39.9. For the same molecule, in assay [2], the IR/IGF-1R comparison amounted to 0.1 and the “Ratio over Background” value is 3.1.
For the molecule DRDFCRFYERLTALVGGQVDGGWPC [20C-3-F6-IGFR], in assay [1], the IGF-1R/IR comparison was 14.1 and the “Ratio over Background” value stood at 26.1. Moreover, in assay [2], the IR/IGF-1R comparison amounted to 0.1 and the “Ratio over Background” value was determined as 1.9.
With RCEEKQAEVGPSSDPFYHKMSELLGCR [B6Hα-3-E9-IR], in assay [1], the IGF-1R/IR comparison amounted to 14.2 and the “Ratio over Background” value is 24.2. Moreover, in assay [2], the IR/IGF-1R comparison was 0.1 and the “Ratio over Background” value came out at 1.7.
Taken in the same sequence, the figures for GNGDGMFYQLLSLLVGRDMHV [20E2B-3-02-IGFR] were 13.8, 8.9, 0.1 and 0.6.
The matching figures for GGTEVDFYRALERLVRGQLGL [20E2B-3-D8-IGFR]: 11.3, 17.7, 0.1 and 1.6.
The matching figures for YSCGDGFYSLLSDLLGGQFRC [20E2B-4-H12-IGFR]: 12.8, 9.7, 0.1 and 0.8.
As for RGMKEEVLVGGSTDPFYHKLSELLQGS [B6Hα-3-F11-IR], in assay [1], the IGF-1R/IR comparison stood at 11.7 and the “Ratio over Background” value stood at 18.7. Moreover, in assay [2], the IR/IGF-1R comparison is 0.1 and the “Ratio over Background” value worked out at 1.6.
Taken in the same sequence, the figures for VGYQGQGDENFYDWFIRQVSGRLGVQ [H2CA-4-F5-IGFR] were 12.3, 9.7, 0.1 and 0.8.
Taken in the same sequence, the figures for SSYGCDGFYLMLFSLGLVASQELEC [20C-3-A1-IGFR] were 13.7, 20.8, 0.1 and 1.5.
As to IQQELTFYDLLHRLVRSELGS [20E2B-3-D2-IGFR], in assay [1], the IGF-1R/IR comparison worked out at 11.7 and the “Ratio over Background” value was 12.4. In addition, in assay [2], the IR/IGF-1R comparison turned out to be 0.1 and the “Ratio over Background” value was 1.1.
KLHNLMFYYGLQRLVWGAGLG [20E2B-4-H3-IGFR]: in assay [1], the IGF-1R/IR comparison was 13.9 and the “Ratio over Background” value stood at 14.8. For the same molecule, in assay [2], the IR/IGF-1R comparison came to 0.1 and the “Ratio over Background” value came out at 1.1.
The matching figures for QGGSASFYDAIDRLLRMRIGG [20E2A-4-F11-IGFR]: 14.6, 18.8, 0.1 and 1.3.

The record behind these values is patent publication US20070265189A1 (published 2007).
